The series can be described thus: protein stability index of a GFP-peptide fusion (yeast GPS) (PSI 1-4); higher = more stable; sorted into four equal gates, so the index is relative within each strain. The essentials:
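For each peptide, the protein stability index sums the read frequency in every gate after multiplying it by the gate number. Read frequencies came from plasmids that were PCR-amplified from each gate and Illumina-sequenced, with reads assigned to strains by barcodes. The gates were four equal bins of GFP/Cherry fluorescence ratio applied to mid-log yeast in leucine-free medium carrying a pooled library of tiled 17-residue yeast protein peptides fused downstream of GFP on a Cherry-expressing plasmid.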

± gives the uncertainty stated by the source.

Consider LLNILITYGIIKVPTYI [SRB8], for which the protein stability index was determined as 1.57 ± 0.083 (doa10∆), 1.52 ± 0.09 (pdr5∆) and 1.03 ± 0.047 (ubr1∆).

Consider LLPNSKNVENTKNLSIL [DSN1], for which the protein stability index is 2.59 ± 0.1 (doa10∆), 2.5 ± 0.11 (pdr5∆), 2.43 ± 0.12 (san1∆) and 2.83 ± 0.054 (ubr1∆).

As for LLRIQMLLCVSYFLQER [PCI8], the protein stability index reads like this: (doa10∆) 1.29 ± 0.046; (pdr5∆) 1.45 ± 0.044; (san1∆) 1.35 ± 0.074; (ubr1∆) 1.22 ± 0.052.

For the sequence LLSDTFEVLAPKWERVF [RRI2], the protein stability index was found to be 3.13 ± 0.11 (doa10∆), 2.48 ± 0.076 (pdr5∆), 1.75 ± 0.091 (san1∆) and 2.93 ± 0.11 (ubr1∆).

Regarding LLTEELAKSGSTEETTA [TAF14], the protein stability index by setting is: (doa10∆) 3.05 ± 0.15; (pdr5∆) 3.05 ± 0.091; (san1∆) 2.82 ± 0.1; (ubr1∆) 2.74 ± 0.087.

As for LLVNPDIDLETYSFIDN [YML103C/NUP188], the protein stability index is, setting by setting: (doa10∆) 2.79 ± 0.059; (pdr5∆) 2.6 ± 0.048; (san1∆) 2.66 ± 0.056; (ubr1∆) 2.6 ± 0.038.

For LLVPASDLINKDLVKNN [FAS1], the protein stability index (doa10∆) came out at 1.76 ± 0.086, the protein stability index (pdr5∆) stood at 2.95 ± 0.097, the protein stability index (san1∆) is 3.11 ± 0.12 and the protein stability index (ubr1∆) was determined as 2.83 ± 0.11.

As for LLVPLALLTKRLYPHWD [CSN12], the protein stability index by setting is: (doa10∆) 2.33 ± 0.066; (pdr5∆) 2.01 ± 0.063; (san1∆) 1.83 ± 0.092; (ubr1∆) 1.5 ± 0.037.

As to LLYELTAFKATVFFLIR [YJL039C/NUP192], the protein stability index reads like this: (doa10∆) 2.32 ± 0.071; (pdr5∆) 2.36 ± 0.09; (san1∆) 1.82 ± 0.077; (ubr1∆) 2.43 ± 0.063.

On to LMCLSSKYCEKSLPLLI [YCS4], for which the protein stability index runs as follows: (doa10∆) 2.45 ± 0.1; (pdr5∆) 2.71 ± 0.076; (san1∆) 2.39 ± 0.089; (ubr1∆) 2.39 ± 0.052.

Turning to LMQNMMNMFGGGMGGGM [SRP54], the protein stability index runs as follows: (doa10∆) 1.85 ± 0.16; (pdr5∆) 2.53 ± 0.063; (san1∆) 2.47 ± 0.17; (ubr1∆) 2.27 ± 0.081.

LMSCISVGTDPMPIITF [RPB2]: the protein stability index turned out to be 2.26 ± 0.086 (doa10∆), 1.71 ± 0.056 (pdr5∆), 2.28 ± 0.05 (san1∆) and 2.18 ± 0.054 (ubr1∆).

As to LMTSHTKGDTSKATGAP [RTT102], the protein stability index reads like this: (doa10∆) 3.12 ± 0.068; (pdr5∆) 3.34 ± 0.079; (san1∆) 3.27 ± 0.059; (ubr1∆) 3.17 ± 0.06.

Turning to LNAANYNIDANVIDTQR [ECM29], the protein stability index runs as follows: (pdr5∆) 2.37 ± 0.15; (san1∆) 3.18 ± 0.12; (ubr1∆) 2.85 ± 0.12.

As to LNCGNGMGIGFIDHHAA [POP1], the protein stability index (doa10∆) was determined as 3.33 ± 0.086, the protein stability index (pdr5∆) was 3.13 ± 0.07, the protein stability index (san1∆) came to 3.33 ± 0.07 and the protein stability index (ubr1∆) was 3.42 ± 0.046.

On to LNEEAVIFLSSLLTLVG [YJL039C/NUP192], for which the protein stability index reads like this: (doa10∆) 2.52 ± 0.076; (pdr5∆) 2.72 ± 0.086; (san1∆) 2.3 ± 0.11; (ubr1∆) 2.9 ± 0.088.

Consider LNELYQTQQDLPKVRYN [NSL1], for which the protein stability index reads like this: (doa10∆) 3.1 ± 0.042; (pdr5∆) 3.12 ± 0.052; (san1∆) 2.96 ± 0.039; (ubr1∆) 3.03 ± 0.038.

Consider LNESDCLEACSFILSSL [YDL116W/NUP84], for which the protein stability index was found to be 2.62 ± 0.056 (doa10∆), 2.58 ± 0.052 (pdr5∆), 2.96 ± 0.052 (san1∆) and 2.65 ± 0.041 (ubr1∆).

LNGREVKAILMQRHVKV [RPS4A]: the protein stability index (doa10∆) stood at 1.23 ± 0.081, the protein stability index (pdr5∆) worked out at 1.25 ± 0.063, the protein stability index (san1∆) is 1.39 ± 0.21 and the protein stability index (ubr1∆) was determined as 1.24 ± 0.051.

For LNIRIQTYGETTAVDAL [RPC19], the protein stability index (doa10∆) amounted to 2.02 ± 0.12, the protein stability index (pdr5∆) was 1.09 ± 0.11, the protein stability index (san1∆) came out at 1.19 ± 0.28 and the protein stability index (ubr1∆) was 1.15 ± 0.077.

For the sequence LNKGKKVTSMTPAPKIS [RPL36A], the protein stability index runs as follows: (pdr5∆) 2.98 ± 0.14; (ubr1∆) 3.15 ± 0.12.

For the sequence LNLKFKEKWPSLELQSF [YML103C/NUP188], the protein stability index runs as follows: (doa10∆) 2.72 ± 0.097; (pdr5∆) 2.54 ± 0.14; (san1∆) 1.92 ± 0.11; (ubr1∆) 2.05 ± 0.19.

LNLPLQFSLPNGDNSTT [SNF12]: the protein stability index runs as follows: (doa10∆) 2.48 ± 0.047; (pdr5∆) 1.99 ± 0.043; (san1∆) 2.283 ± 0.013; (ubr1∆) 2.08 ± 0.038.

Regarding LNNTHVISSGPLAAGNF [RPC53], the protein stability index by setting is: (doa10∆) 2.74 ± 0.086; (pdr5∆) 3 ± 0.1; (san1∆) 2.69 ± 0.074; (ubr1∆) 2.49 ± 0.049.

Take LNRQNDITDGKDYHTLA [RPS18A]: the protein stability index reads like this: (doa10∆) 3.13 ± 0.069; (pdr5∆) 3.33 ± 0.061; (san1∆) 3.27 ± 0.05; (ubr1∆) 3.11 ± 0.06.

Take LNSTLESLYDLIEFQPS [MED6]: the protein stability index is, setting by setting: (doa10∆) 2.8 ± 0.049; (pdr5∆) 2.85 ± 0.046; (san1∆) 2.88 ± 0.039; (ubr1∆) 2.76 ± 0.048.
